Experimental findings from patent publication US12099068B2, “Biomarkers for graft-versus-host disease” (Incyte Corporation, priority 2018, dated 2024) are described below.

To fix the notation:
B1: WASF1 (protein, UniProt Q92558 1-559, looked up)
Actin-binding protein WASF1: MPLVKRNIDPRHLCHTALPRGIKNELECVTNISLANIIRQLSSLSKYAEDIFGELFNEAHSFSFRVNSLQERVDRLSVSVTQLDPKEEELSLQDITMRKAFRSSTIQDQQLFDRKTLPIPLQETYDVCEQPPPLNILTPYRDDGKEGLKFYTNPSYFFDLWKEKMLQDTEDKRKEKRKQKQKNLDRPHEPEKVPRAPHDRRREWQKLAQGPELAEDDANLLHKHIEVANGPASHFETRPQTYVDHMDGSYSLSALPFSQMSELLTRAEERVLVRPHEPPPPPPMHGAGDAKPIPTCISSATGLIENRPQSPATGRTPVFVSPTPPPPPPPLPSALSTSSLRASMTSTPPPPVPPPPPPPATALQAPAVPPPPAPLQIAPGVLHPAPPPIAPPLVQPSPPVARAAPVCETVPVHPLPQGEVQGLPPPPPPPPLPPPGIRPSSPVTVTALAHPPSGLHPTPSTAPGPHVPLMPPSPPSQVIPASEPKRHPSTLPVISDARSVLLEAIRKGIQLRKVEEQREQEAKHERIENDVATILSRRIAVEYSDSEDDSEFDEVDWLE
B2: STK4 (protein, UniProt Q13043 1-487, looked up)
Serine/threonine-protein …: METVQLRNPPRRQLKKLDEDSLTKQPEEVFDVLEKLGEGSYGSVYKAIHKETGQIVAIKQVPVESDLQEIIKEISIMQQCDSPHVVKYYGSYFKNTDLWIVMEYCGAGSVSDIIRLRNKTLTEDEIATILQSTLKGLEYLHFMRKIHRDIKAGNILLNTEGHAKLADFGVAGQLTDTMAKRNTVIGTPFWMAPEVIQEIGYNCVADIWSLGITAIEMAEGKPPYADIHPMRAIFMIPTNPPPTFRKPELWSDNFTDFVKQCLVKSPEQRATATQLLQHPFVRSAKGVSILRDLINEAMDVKLKRQESQQREVDQDDEENSEEDEMDSGTMVRAVGDEMGTVRVASTMTDGANTMIEHDDTLPSQLGTMVINAEDEEEEGTMKRRDETMQPAKPSFLEYFEQKEKENQINSFGKSVPGPLKNSSDWKIPQDGDYEFLKSWTVEDLQKRLLALDPMMEQEIEEIRQKYQSKRQPILDAIEAKKRRQQNF
B3: TYMP (protein, UniProt P19971 11-482, looked up)
Thymidine phosphorylase: APPAPGDFSGEGSQGLPDPSPEPKQLPELIRMKRDGGRLSEADIRGFVAAVVNGSAQGAQIGAMLMAIRLRGMDLEETSVLTQALAQSGQQLEWPEAWRQQLVDKHSTGGVGDKVSLVLAPALAACGCKVPMISGRGLGHTGGTLDKLESIPGFNVIQSPEQMQVLLDQAGCCIVGQSEQLVPADGILYAARDVTATVDSLPLITASILSKKLVEGLSALVVDVKFGGAAVFPNQEQARELAKTLVGVGASLGLRVAAALTAMDKPLGRCVGHALEVEEALLCMDGAGPPDLRDLVTTLGGALLWLSGHAGTQAQGAARVAAALDDGSALGRFERMLAAQGVDPGLARALCSGSPAERRQLLPRAREQEELLAPADGTVELVRALPLALVLHELGAGRSRAGEPLRLGVGAELLVDVGQRLRRGTPWLRVHRDGPALSGPQSRALQEALVLSDRAPFAAPSPFAELVLPPQQ
B4: SNAP29 (protein, UniProt O95721 1-258, looked up)
Synaptosomal-associated …: MSAYPKSYNPFDDDGEDEGARPAPWRDARDLPDGPDAPADRQQYLRQEVLRRAEATAASTSRSLALMYESEKVGVASSEELARQRGVLERTEKMVDKMDQDLKISQKHINSIKSVFGGLVNYFKSKPVETPPEQNGTLTSQPNNRLKEAISTSKEQEAKYQASHPNLRKLDDTDPVPRGAGSAMSTDAYPKNPHLRAYHQKIDSNLDELSMGLGRLKDIALGMQTEIEEQDDILDRLTTKVDKLDVNIKSTERKVRQL
B5: GCNT1 (protein, UniProt Q02742 1-428, looked up)
Beta-1,3-galactosyl-O-glycosyl …: MLRTLLRRRLFSYPTKYYFMVLVLSLITFSVLRIHQKPEFVSVRHLELAGENPSSDINCTKVLQGDVNEIQKVKLEILTVKFKKRPRWTPDDYINMTSDCSSFIKRRKYIVEPLSKEEAEFPIAYSIVVHHKIEMLDRLLRAIYMPQNFYCIHVDTKSEDSYLAAVMGIASCFSNVFVASRLESVVYASWSRVQADLNCMKDLYAMSANWKYLINLCGMDFPIKTNLEIVRKLKLLMGENNLETERMPSHKEERWKKRYEVVNGKLTNTGTVKMLPPLETPLFSGSAYFVVSREYVGYVLQNEKIQKLMEWAQDTYSPDEYLWATIQRIPEVPGSLPASHKYDLSDMQAVARFVKWQYFEGDVSKGAPYPPCDGVHVRSVCIFGAGDLNWMLRKHHLFANKFDVDVDLFAIQCLDEHLRHKALETLKH
B6: SIGLEC6 (protein, UniProt O43699 27-453, looked up)
Sialic acid-binding Ig-like …: QERRFQLEGPESLTVQEGLCVLVPCRLPTTLPASYYGYGYWFLEGADVPVATNDPDEEVQEETRGRFHLLWDPRRKNCSLSIRDARRRDNAAYFFRLKSKWMKYGYTSSKLSVRVMALTHRPNISIPGTLESGHPSNLTCSVPWVCEQGTPPIFSWMSAAPTSLGPRTTQSSVLTITPRPQDHSTNLTCQVTFPGAGVTMERTIQLNVSYAPQKVAISIFQGNSAAFKILQNTSSLPVLEGQALRLLCDADGNPPAHLSWFQGFPALNATPISNTGVLELPQVGSAEEGDFTCRAQHPLGSLQISLSLFVHWKPEGRAGGVLGAVWGASITTLVFLCVCFIFRVKTRRKKAAQPVQNTDDVNPVMVSGSRGHQHQFQTGIVSDHPAEAGPISEDEQELHYAVLHFHKVQPQEPKVTDTEYSEIKIHK
B7: EGLN1 (protein, UniProt Q9GZT9 2-426, looked up)
Egl nine homolog 1: ANDSGGPGGPSPSERDRQYCELCGKMENLLRCSRCRSSFYCCKEHQRQDWKKHKLVCQGSEGALGHGVGPHQHSGPAPPAAVPPPRAGAREPRKAAARRDNASGDAAKGKVKAKPPADPAAAASPCRAAAGGQGSAVAAEAEPGKEEPPARSSLFQEKANLYPPSNTPGDALSPGGGLRPNGQTKPLPALKLALEYIVPCMNKHGICVVDDFLGKETGQQIGDEVRALHDTGKFTDGQLVSQKSDSSKDIRGDKITWIEGKEPGCETIGLLMSSMDDLIRHCNGKLGSYKINGRTKAMVACYPGNGTGYVRHVDNPNGDGRCVTCIYYLNKDWDAKVSGGILRIFPEGKAQFADIEPKFDRLLFFWSDRRNPHEVQPAYATRYAITVWYFDADERARAKVKYLTGEKGVRVELNKPSDSVGKDVF
B8: TNFRSF11A (protein, UniProt Q9Y6Q6 30-616, looked up)
Tumor necrosis factor …: IAPPCTSEKHYEHLGRCCNKCEPGKYMSSKCTTTSDSVCLPCGPDEYLDSWNEEDKCLLHKVCDTGKALVAVVAGNSTTPRRCACTAGYHWSQDCECCRRNTECAPGLGAQHPLQLNKDTVCKPCLAGYFSDAFSSTDKCRPWTNCTFLGKRVEHHGTEKSDAVCSSSLPARKPPNEPHVYLPGLIILLLFASVALVAAIIFGVCYRKKGKALTANLWHWINEACGRLSGDKESSGDSCVSTHTANFGQQGACEGVLLLTLEEKTFPEDMCYPDQGGVCQGTCVGGGPYAQGEDARMLSLVSKTEIEEDSFRQMPTEDEYMDRPSQPTDQLLFLTEPGSKSTPPFSEPLEVGENDSLSQCFTGTQSTVGSESCNCTEPLCRTDWTPMSSENYLQKEVDSGHCPHWAASPSPNWADVCTGCRNPPGEDCEPLVGSPKRGPLPQCAYGMGLPPEEEASRTEARDQPEDGADGRLPSSARAGAGSGSSPGGQSPASGNVTGNSNSTFISSGQVMNFKGDIIVVYVSQTSQEGAAAAAEPMGRPVQEETLARRDSFAGNGPRFPDPCGGPEGLREPEKASRPVQEQGGAKA
B9: CLEC4D (protein, UniProt Q8WXI8 1-215, looked up)
C-type lectin domain family 4 …: MGLEKPQSKLEGGMHPQLIPSVIAVVFILLLSVCFIASCLVTHHNFSRCKRGTGVHKLEHHAKLKCIKEKSELKSAEGSTWNCCPIDWRAFQSNCYFPLTDNKTWAESERNCSGMGAHLMTISTEAEQNFIIQFLDRRLSYFLGLRDENAKGQWRWVDQTPFNPRRVFWHKNEPDNSQGENCVVLVYNQDKWAWNDVPCNFEASRICKIPGTTLN
B10: SH2B3 (protein, UniProt Q9UQQ2 1-575, looked up)
SH2B adapter protein 3: MNGPALQPSSPSSAPSASPAAAPRGWSEFCELHAVAAARELARQYWLFAREHPQHAPLRAELVSLQFTDLFQRYFCREVRDGRAPGRDYRDTGRGPPAKAEASPEPGPGPAAPGLPKARSSEELAPPRPPGPCSFQHFRRSLRHIFRRRSAGELPAAHTAAAPGTPGEAAETPARPGLAKKFLPWSLAREPPPEALKEAVLRYSLADEASMDSGARWQRGRLALRRAPGPDGPDRVLELFDPPKSSRPKLQAACSSIQEVRWCTRLEMPDNLYTFVLKVKDRTDIIFEVGDEQQLNSWMAELSECTGRGLESTEAEMHIPSALEPSTSSSPRGSTDSLNQGASPGGLLDPACQKTDHFLSCYPWFHGPISRVKAAQLVQLQGPDAHGVFLVRQSETRRGEYVLTFNFQGIAKHLRLSLTERGQCRVQHLHFPSVVDMLHHFQRSPIPLECGAACDVRLSSYVVVVSQPPGSCNTVLFPFSLPHWDSESLPHWGSELGLPHLSSSGCPRGLSPEGLPGRSSPPEQIFHLVPSPEELANSLQHLEHEPVNRARDSDYEMDSSSRSHLRAIDNQYTPL
B11: gal-8 (protein, UniProt O00214 1-317, looked up)
Galectin-8: MMLSLNNLQNIIYNPVIPFVGTIPDQLDPGTLIVIRGHVPSDADRFQVDLQNGSSMKPRADVAFHFNPRFKRAGCIVCNTLINEKWGREEITYDTPFKREKSFEIVIMVLKDKFQVAVNGKHTLLYGHRIGPEKIDTLGIYGKVNIHSIGFSFSSDLQSTQASSLELTEISRENVPKSGTPQLRLPFAARLNTPMGPGRTVVVKGEVNANAKSFNVDLLAGKSKDIALHLNPRLNIKAFVRNSFLQESWGEEERNITSFPFSPGMYFEMIIYCDVREFKVAVNGVHSLEYKHRFKELSSIDTLEINGDIHLLEVRSW

This assay relates to plasma proteins. The experiment in a line: Plasma proteins modulated between baseline and day 28 in responders (CR, VGPR, PR; n = 19), Example 6 (Table 13). Format: in vivo, human. The following applies: plasma protein (OLINK NPX); responders (CR, VGPR, PR; n = 19); itacitinib 200 mg or 300 mg QD with corticosteroids; day 28 vs baseline. On the procedure: Due to the limited sample size, steroid-naive (N=10) and steroid-refractory (N=18) patients were combined for further analysis. Broad proteomic analysis of over 1000 proteins was conducted by OLINK Proteomics (Watertown, MA) using a proximity extension assay as described by the manufacturer. Data are presented as normalized protein expression (NPX) in log 2 scale. Statistical differences were evaluated using unpaired and paired t tests, one-way […] (ANOVA), and Pearson Correlation. Significance was conferred when P<0.05.
Longitudinal differences in protein expression were analyzed by evaluating plasma samples from baseline/screening and day 28.
As to B1, the “Fold Change, Decreased Expression from Baseline to Day 28” value (“Fold Change, Decreased Expression” below) was −1.5354.

Take B2: the “Fold Change, Decreased Expression” value is given as −1.8393.

With B3, the “Fold Change, Decreased Expression” value was −1.7313.

For the molecule B4, the “Fold Change, Decreased Expression” value is on record as −1.6325.

As for B5, the “Fold Change, Decreased Expression” value was −1.3034.

Consider B6, for which the “Fold Change, Decreased Expression” value is −1.9024.

For the molecule B7, the “Fold Change, Decreased Expression” value was −1.3184.

As for B8, the “Fold Change, Decreased Expression” value is reported as −1.3519.

As to B9, the “Fold Change, Decreased Expression” value is −1.7084.

For the molecule B10, the “Fold Change, Decreased Expression” value is given as −1.7273.

B11: the “Fold Change, Decreased Expression” value is recorded as −1.3154.
